Experimental data taken from patent EP1605964B1 (GEORG-SPEYER-HAUS CHEMOTHERAPEUTISCHES FORSCHUNGSINSTITUT, dated 2004).

Target: T1, Gal4 DNA binding domain alone (UniProt P04386 1-147)
T1 construct: Negative control bait in the yeast two-hybrid retransformation
Assay: yeast two-hybrid, retransformation of rescued plasmids

T1 sequence (P04386 1-147 limits assumed): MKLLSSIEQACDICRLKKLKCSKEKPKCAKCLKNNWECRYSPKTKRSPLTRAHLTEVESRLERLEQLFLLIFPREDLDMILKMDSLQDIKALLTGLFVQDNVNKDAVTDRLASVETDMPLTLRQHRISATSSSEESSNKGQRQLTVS

B1: peptide aptamer KDI4 (SEQ ID NO:3), displayed in E. coli thioredoxin A (TrxA) (designed binder, not shown: large carriers)
chain: MSDKIIHLTDDSFDTDVLKADGAILVDFWAEWCGLSFQLSPLSLVHRWGTTVDVPCKMIAPILDEIADEYQGKLTVAKLNIDQNPGTAPKYGIRGIPTLLLFKNGEVAATKVGALSKGQLKEFLDANLA
notes: Built as the yeast two-hybrid prey; The construct used in the GST pulldown is not described
binding result: no binding

B2: peptide aptamer KDI3 (SEQ ID NO:2), displayed in E. coli thioredoxin A (TrxA) (designed binder, not shown: large carriers)
chain: MSDKIIHLTDDSFDTDVLKADGAILVDFWAEWCGTFSPVVLLYRLFLATVLIWAPCKMIAPILDEIADEYQGKLTVAKLNIDQNPGTAPKYGIRGIPTLLLFKNGEVAATKVGALSKGQLKEFLDANLA
notes: as for B1
binding result: no binding

B3: peptide aptamer KDI1 (SEQ ID NO:1), displayed in E. coli thioredoxin A (TrxA) (designed binder, not shown: large carriers)
chain: MSDKIIHLTDDSFDTDVLKADGAILVDFWAEWCGVFGVSWVVGFWCQMHRRLVCPCKMIAPILDEIADEYQGKLTVAKLNIDQNPGTAPKYGIRGIPTLLLFKNGEVAATKVGALSKGQLKEFLDANLA
notes: The construct used in the GST pulldown is not described
binding result: no binding
